According to PMC6975171, “Deep sequencing of mitochondrial DNA and characterization of a novel POLG mutation in a patient with arPEO”:

Columns and labels:
POLγA F197S;POLγB = POLγA F197S;POLγB (Homo sapiens?;Homo sapiens?, UniProt P54098;Q9UHN1 26-1239;25-485, F197S|); test: EMSA; 0.3 mM ddGTP, 3 mM dCTP; 10 fmol DNA in 15 µL; 25 mM Tris-HCl pH 7.8, 1 mM DTT, 0.1 mg/mL BSA, 10% glycerol, 0.3 mM ddGTP, 3 mM dCTP, no added Mg2+ stated; 10 min at ambient temperature; 6% native PAGE in 0.5x TBE; conditions: protein: recombinant;recombinant; tags: 6xHis;6xHis; copies: 1;2; label: 32P 5' end of the 21-nt primer (S1); 21 bp duplex, 5' overhang 15 nt on S2 (template strand), recessed primer 3' end
POLγA WT;POLγB = POLγA WT;POLγB (Homo sapiens?;Homo sapiens?, UniProt P54098;Q9UHN1 26-1239;25-485, |); test: as above; conditions: protein: recombinant;recombinant; tags: 6xHis;6xHis; copies: 1;2; label: 32P 5' end of the 21-nt primer (S1); 21 bp duplex, 5' overhang 15 nt on S2 (template strand), recessed primer 3' end
POLγA WT;POLγB, sequence (P54098 26-1239, chain 1 of 2): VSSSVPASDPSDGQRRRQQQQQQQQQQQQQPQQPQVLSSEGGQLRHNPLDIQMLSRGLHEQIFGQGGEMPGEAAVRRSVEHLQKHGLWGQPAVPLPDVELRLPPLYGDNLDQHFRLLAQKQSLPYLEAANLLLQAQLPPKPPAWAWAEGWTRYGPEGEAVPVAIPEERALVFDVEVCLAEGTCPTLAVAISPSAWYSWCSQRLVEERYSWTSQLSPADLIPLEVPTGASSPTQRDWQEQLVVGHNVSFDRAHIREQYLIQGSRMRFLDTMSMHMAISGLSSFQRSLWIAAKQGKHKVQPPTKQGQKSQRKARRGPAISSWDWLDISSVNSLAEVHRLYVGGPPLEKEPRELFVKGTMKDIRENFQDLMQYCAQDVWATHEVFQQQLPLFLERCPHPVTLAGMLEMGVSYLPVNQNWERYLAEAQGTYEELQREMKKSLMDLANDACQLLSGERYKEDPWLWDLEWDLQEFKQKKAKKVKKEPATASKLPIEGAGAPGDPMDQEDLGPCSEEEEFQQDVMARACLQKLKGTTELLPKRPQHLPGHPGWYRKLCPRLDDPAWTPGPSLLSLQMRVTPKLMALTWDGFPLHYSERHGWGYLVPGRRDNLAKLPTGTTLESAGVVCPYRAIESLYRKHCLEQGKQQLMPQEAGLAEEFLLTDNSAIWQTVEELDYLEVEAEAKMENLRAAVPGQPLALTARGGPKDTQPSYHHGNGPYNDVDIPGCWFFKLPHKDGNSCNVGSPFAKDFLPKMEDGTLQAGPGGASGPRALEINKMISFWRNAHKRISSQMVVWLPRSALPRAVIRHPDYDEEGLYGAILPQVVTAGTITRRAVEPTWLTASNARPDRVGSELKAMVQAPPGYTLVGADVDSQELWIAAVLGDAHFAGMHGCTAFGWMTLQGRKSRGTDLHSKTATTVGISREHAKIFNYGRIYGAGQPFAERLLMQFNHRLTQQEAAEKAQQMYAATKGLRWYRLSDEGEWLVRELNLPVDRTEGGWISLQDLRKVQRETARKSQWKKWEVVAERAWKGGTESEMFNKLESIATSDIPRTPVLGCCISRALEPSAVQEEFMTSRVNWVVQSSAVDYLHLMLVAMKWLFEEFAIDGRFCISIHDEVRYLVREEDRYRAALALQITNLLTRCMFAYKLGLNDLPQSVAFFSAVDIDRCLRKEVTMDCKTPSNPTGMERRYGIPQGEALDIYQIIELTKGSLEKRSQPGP
POLγA WT;POLγB, sequence (Q9UHN1 25-485, chain 2 of 2): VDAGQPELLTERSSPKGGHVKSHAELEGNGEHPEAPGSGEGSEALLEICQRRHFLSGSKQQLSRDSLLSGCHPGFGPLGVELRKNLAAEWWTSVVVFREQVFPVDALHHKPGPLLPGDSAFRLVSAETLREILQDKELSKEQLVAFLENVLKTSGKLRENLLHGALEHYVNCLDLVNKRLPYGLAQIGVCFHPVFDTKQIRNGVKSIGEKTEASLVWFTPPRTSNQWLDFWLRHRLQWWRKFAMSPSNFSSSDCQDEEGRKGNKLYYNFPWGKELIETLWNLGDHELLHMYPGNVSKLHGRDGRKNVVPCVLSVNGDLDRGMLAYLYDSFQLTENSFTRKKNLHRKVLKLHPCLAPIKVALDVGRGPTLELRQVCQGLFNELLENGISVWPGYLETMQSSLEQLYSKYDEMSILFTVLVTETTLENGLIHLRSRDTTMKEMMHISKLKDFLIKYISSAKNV

POLγA F197S;POLγB, sequence (P54098 26-1239 F197S, chain 1 of 2): as the sequence (P54098 26-1239, chain 1 of 2) above, with F172S counted along it
POLγA F197S;POLγB, sequence (Q9UHN1 25-485, chain 2 of 2): as the sequence (Q9UHN1 25-485, chain 2 of 2) above

B1: 21/36-nt primed template (dsDNA)
DNA 1: GCGGTCGAGTCTAGAGGAGCC
DNA 2: GACTACGTCTATCCGGGCTCCTCTAGACTCGACCGC
POLγA F197S;POLγB
  binding result: binds
POLγA WT;POLγB
  binding result: binds
